Data on 94 variants can be found in the supplement of paper PMC10567573.

B1: DFFB (parent)
chain: KLNCDPSRIYKPQTRLKRKQPVRK
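Also: lentivirally expressed fusions sorted by FACS into six bins by GFP to DsRed ratio, PSI derived from sequencing read proportions per bin multiplied by bin number.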

In the data set the parent is B1. Kind of data set: protein stability index of a GFP-peptide fusion (GPS, HEK-293T) (PSI 1-6); higher = more stable. The settings on record: c terminus: a fixed tail appended.
Consider KLNCDPSRIYKKQTRLKRKQPVRK [P12K], for which the protein stability index worked out at 3.46. As for KLNCDPSRIYKAQTRLKRKQPVRK [P12A], the figure is 3.47; as for KLNCDPSRIYKDQTRLKRKQPVRK [P12D], 3.09; as for KLNCDPSRIYKPQTRLKMKQPVRK [R18M], 3.68. As to KLNCDPSRIYKPQTRLKCKQPVRK [R18C], the protein stability index was 3.43. As for KLNCDPSRIYKPQTRLKDKQPVRK [R18D], the protein stability index was 3.34. As for KLNCDPSRIYKPQTRLKAKQPVRK [R18A], the figure is 2.94; as for KLNCDPSRIYKPQTRLKPKQPVRK [R18P], 3.83. For KLNCDPSRIYKPQTRLKVKQPVRK [R18V], the protein stability index was determined as 3.89.

In the case of KLNCDPSRIYKPQTRLKYKQPVRK [R18Y], the protein stability index was 3.05. For the variant KLNCDPSRIYKPQTRLKNKQPVRK [R18N], the protein stability index stood at 3.23. Take KLNCDPSRIYKPQTRGKRKQPVRK [L16G]: the protein stability index worked out at 4.16. On to KLNCDPSRIYKPQTRYKRKQPVRK [L16Y], for which the protein stability index came out at 3.77. For KLNCDPSRIYKPQTRMKRKQPVRK [L16M] the value was 3.23. Take KLNCDPSRIYKPQTRPKRKQPVRK [L16P]: the protein stability index amounted to 3.83. Take KLNCDPSRIYKPQTRAKRKQPVRK [L16A]: the protein stability index was determined as 3.34. For KLNCDPSRIYKPQTREKRKQPVRK [L16E], the protein stability index worked out at 4.44.

KLNCDPSRIYKPQTRFKRKQPVRK [L16F]: the protein stability index amounted to 2.8. As for KLNCDPSRIYKPQTRVKRKQPVRK [L16V], the figure is 3.88; as for KLNCDPSRIYKPQTRTKRKQPVRK [L16T], 4.05.

For KLNCDPSRIYKPQTRLKRKQKVRK [P21K], the protein stability index is 2.75.

With KLNCDPSRIYKPQTRLKRKQAVRK [P21A], the protein stability index was 4.07. Regarding KLNCDPSRIYKPQTRLKRKQYVRK [P21Y], the protein stability index was determined as 3.91.

Regarding KLNCDPSRIYKPQTRLKRKQRVRK [P21R], the protein stability index was 3.31. In the case of KLNCDPSRIYKPQTRLKRKQMVRK [P21M], the protein stability index was 3.76.

As for KLNCDPSRIYKPQTRLKRKQHVRK [P21H], the protein stability index was 3.41. For the variant KLNCDPSRIYKPQTRLKRKQIVRK [P21I], the protein stability index was determined as 3.16. KLNCDPSRIYKPQTRLKRKQVVRK [P21V]: the protein stability index is 3.31. For the variant KLNCDPSRIYKPQTRLKRKQNVRK [P21N], the protein stability index amounted to 3.67. On to KLNCDPSRIYKPQTRLKRKQPVRL [K24L], for which the protein stability index was determined as 2.87. As to KLNCDPSRIYKPQTRLKRKQPVRV [K24V], the protein stability index was determined as 2.49. Take KLNCDPSRIYKPQTRLKRKQPVRY [K24Y]: the protein stability index is 3.11. Regarding KLNCDPSRIYKPQTRLKRKQPVRA [K24A], the protein stability index is 4.04.

As to KLNCDPSRIYKPQTRLKRKQPVRQ [K24Q], the protein stability index came out at 3.18. Turning to KLNCDPSRIYKPQTRLKRKQPVRP [K24P], the protein stability index turned out to be 3.32. KLNCDPSRIYKPQTRLKRKQPVRD [K24D]: the protein stability index came to 3.56. For KLNCDPSRIYKPQTRLKRKQPVRR [K24R] the value was 3.96. On to KLNCDPSRIYKPQTRLKRKQPVRN [K24N], for which the protein stability index is 3.44. For the variant KLNCDPSRIYKPQTRLKRKQPVRC [K24C], the protein stability index worked out at 2.96. For KLNCDPSRIYKPQTRLKRKQPVRH [K24H], the protein stability index was 3.15. In the case of KLNCDPQRIYKPQTRLKRKQPVRK [S7Q], the protein stability index stood at 3.87.

Take KLNCDPCRIYKPQTRLKRKQPVRK [S7C]: the protein stability index is 3.52. In the case of KLNCDPYRIYKPQTRLKRKQPVRK [S7Y], the protein stability index was determined as 2.73. On to KLNCDPLRIYKPQTRLKRKQPVRK [S7L], for which the protein stability index was found to be 3.73. Turning to KLNCDPIRIYKPQTRLKRKQPVRK [S7I], the protein stability index was found to be 3.41.

As to KLNCDPERIYKPQTRLKRKQPVRK [S7E], the protein stability index is 3.53.

As to KLNCDPTRIYKPQTRLKRKQPVRK [S7T], the protein stability index worked out at 3.46.

KLNCDPKRIYKPQTRLKRKQPVRK [S7K]: the protein stability index turned out to be 3.21. As for KLNCDPSRIDKPQTRLKRKQPVRK [Y10D], the protein stability index was determined as 3.55. For KLNCDPSRIWKPQTRLKRKQPVRK [Y10W] the value was 3.47; for KLNCDPSRIGKPQTRLKRKQPVRK [Y10G], 2.28. For KLNCDPSRIVKPQTRLKRKQPVRK [Y10V] the value was 2.94; for KLNCDPSRILKPQTRLKRKQPVRK [Y10L], 3.84; for KLNCDPSRIKKPQTRLKRKQPVRK [Y10K], 3.21.

Take KLNCDPSRITKPQTRLKRKQPVRK [Y10T]: the protein stability index stood at 3.35. Take KLNCDPSRIEKPQTRLKRKQPVRK [Y10E]: the protein stability index was found to be 3.56. KLNCDPSPIYKPQTRLKRKQPVRK [R8P]: the protein stability index was 3.58. As for KLNCDPSVIYKPQTRLKRKQPVRK [R8V], the figure is 2.94. Regarding KLNCDPSCIYKPQTRLKRKQPVRK [R8C], the protein stability index amounted to 3.63. KLNCDPSQIYKPQTRLKRKQPVRK [R8Q]: the protein stability index came to 3.57. As for KLNCDPSLIYKPQTRLKRKQPVRK [R8L], the figure is 2.9; as for KLNCDPSDIYKPQTRLKRKQPVRK [R8D], 3.63. As for KLNCDPSNIYKPQTRLKRKQPVRK [R8N], the figure is 3.38; as for KLNCDPSRIYKPQTRLKRKGPVRK [Q20G], 4.19. As to KLNCDPSRIYKPQTRLKRKCPVRK [Q20C], the protein stability index is 3.6. As for KLNCDPSRIYKPQTRLKRKFPVRK [Q20F], the figure is 3.15; as for KLNCDPSRIYKPQTRLKRKPPVRK [Q20P], 2.98; as for KLNCDPSRIYKPQTRLKRKKPVRK [Q20K], 3.7. Take KLNCDPSRIYKPQTRLKRKSPVRK [Q20S]: the protein stability index stood at 2.75. For KLNCDPSRIYKPQTRLKRKMPVRK [Q20M], the protein stability index is 4.04.

On to KLNCDPSRIYKPQTRLKRKWPVRK [Q20W], for which the protein stability index stood at 3.24. Turning to KLNCDPSRIYKPQTRLCRKQPVRK [K17C], the protein stability index came to 3.38. For KLNCDPSRIYKPQTRLNRKQPVRK [K17N], the protein stability index stood at 3.21. For KLNCDPSRIYKPQTRLFRKQPVRK [K17F], the protein stability index is 3.45. KLNCDPSRIYKPQTRLMRKQPVRK [K17M]: the protein stability index was 3.45. As for KLNCDPSRIYKPQTRLQRKQPVRK [K17Q], the figure is 2.9; as for KLNCDPSRIYKPQTRLTRKQPVRK [K17T], 3.14. For KLNCDPSRIYKPQTRLLRKQPVRK [K17L] the value was 2.14.

With KLNCDPSRIYKPQTRLDRKQPVRK [K17D], the protein stability index turned out to be 2.17. Consider KLNCDPSRIYKPQTRLPRKQPVRK [K17P], for which the protein stability index worked out at 3.

Turning to KLNCDPSRIYKPQTRLHRKQPVRK [K17H], the protein stability index came out at 2.55. For KLNCDPSRIYKPQTRLKRFQPVRK [K19F], the protein stability index came to 1.86. For KLNCDPSRIYKPQTRLKRNQPVRK [K19N], the protein stability index was 3.54. Turning to KLNCDPSRIYKPQTRLKRTQPVRK [K19T], the protein stability index amounted to 3.52. KLNCDPSRIYKPQTRLKRSQPVRK [K19S]: the protein stability index came to 2.78. For KLNCDPSRIYMPQTRLKRKQPVRK [K11M] the value was 3.02; for KLNCDPSRIYNPQTRLKRKQPVRK [K11N], 2.98. On to KLNCDPSRIYFPQTRLKRKQPVRK [K11F], for which the protein stability index was 3.09. As to KLNCDPSRIYEPQTRLKRKQPVRK [K11E], the protein stability index stood at 4.3.

With KLNCDPSRIYTPQTRLKRKQPVRK [K11T], the protein stability index turned out to be 3.2. With KLNCDPSRIYKPVTRLKRKQPVRK [Q13V], the protein stability index was found to be 3.8.

On to KLNCDPSRIYKPSTRLKRKQPVRK [Q13S], for which the protein stability index turned out to be 3.44. On to KLNCDPSRIYKPITRLKRKQPVRK [Q13I], for which the protein stability index was 3.24.

Turning to KLNCDPSRIYKPETRLKRKQPVRK [Q13E], the protein stability index is 4.16.
